Six molecules from patent US20250076311A1 (Chugai, published 2025) can be followed below.

Test [1] deals with T1, cynomolgus monkey FcγRIIIaS extracellular domain with C-terminal His-tag (cynomolgus monkey, UniProt A3RFZ7 21-206 (rhesus entry)).
T1 construct: also called cyno FcgRIIIaS; cynoFcγRIIIaS; not shown: His-tag added to the C-terminus
Description: SPR (BIACORE); KD of SG1 / KD of variant. The procedure: The kinetic analysis of interactions between these antibodies and FcγR was carried out using BIACORE® T200 or BIACORE® 4000 (GE Healthcare). HBS-EP+ (GE Healthcare) was used as the running buffer, and the measurement temperature was set to 25° C. […] After the measurement, the antibody captured on the chip was washed off by allowing reaction with 10 mM glycine-HCl, pH1.5 and 25 mM NaOH so that the chip was regenerated and used repeatedly. The sensorgrams obtained as measurement results were analyzed by the 1:1 Langmuir binding model using the BIACORE® Evaluation Software to calculate the binding rate constant ka (L/mol/s) and dissociation rate constant kd (1/s), and the dissociation constant KD (mol/L) was calculated from these values. […] Regarding such interactions, KD values were calculated using the following 1:1 binding model described in BIACORE® T100 Software Handbook BR1006-48 Edition AE.
Background: SPR reads the build-up and loss of mass on a sensor chip optically.

The target in test [2] is T1, cynomolgus monkey FcγRIIIaS …. Description: SPR (BIACORE), antibody captured, FcgR analyte.
For test [3], the target named is T2, human FcγRIIaH extracellular domain with C-terminal His-tag (human, UniProt P12318 34-217).
T2 construct: also called human FcgRIIaH; FcγRIIa type H; not shown: His-tag added to the C-terminus
T2 sequence: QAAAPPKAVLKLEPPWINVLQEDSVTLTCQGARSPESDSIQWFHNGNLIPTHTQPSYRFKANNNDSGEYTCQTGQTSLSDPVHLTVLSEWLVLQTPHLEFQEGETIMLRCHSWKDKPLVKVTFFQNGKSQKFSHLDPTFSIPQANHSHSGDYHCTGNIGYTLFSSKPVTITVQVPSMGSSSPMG
Description: SPR (BIACORE), antibody captured, FcgR analyte.

Test [4] has as its target T3, human FcγRIIIaV extracellular domain with C-terminal His-tag (human, UniProt P08637 17-208).
T3 construct: also called human FcgRIIIaV; not shown: His-tag added to the C-terminus
In words: SPR (BIACORE), antibody captured, FcgR analyte.
T3 sequence (P08637 17-208 F176V): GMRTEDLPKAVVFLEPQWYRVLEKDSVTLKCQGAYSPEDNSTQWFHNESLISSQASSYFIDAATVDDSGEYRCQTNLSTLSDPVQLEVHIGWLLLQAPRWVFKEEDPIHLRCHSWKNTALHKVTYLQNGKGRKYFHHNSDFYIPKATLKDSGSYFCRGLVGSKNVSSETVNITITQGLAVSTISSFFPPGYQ

Test [5] has as its target T4, human FcγRIIIaV extracellular domain with C-terminal His-tag (human, UniProt P08637 17-208).
T4 construct: also called human FcgRIIIaV; not shown: His-tag added to C-terminus
In words: SPR Biacore, antibody captured, FcgR analyte.
T4 sequence (P08637 17-208 F176V): as above

Test [6] has as its target T5, cynomolgus monkey FcγRIIa3 extracellular domain with C-terminal His-tag (cynomolgus monkey).
T5 construct: also called cyno FcgRIIa3; cynoFcγRIIa3; not shown: His-tag added to the C-terminus
T5 chain: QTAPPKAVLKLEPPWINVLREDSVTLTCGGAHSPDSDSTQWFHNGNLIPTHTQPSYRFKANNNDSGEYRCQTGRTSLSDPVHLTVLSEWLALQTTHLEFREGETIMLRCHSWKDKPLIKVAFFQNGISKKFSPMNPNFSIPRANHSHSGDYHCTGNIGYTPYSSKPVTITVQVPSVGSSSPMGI
In words: SPR (BIACORE), antibody captured, FcgR analyte.

In test [7] the target is T6, human FcγRIIaR extracellular domain with C-terminal His-tag (human, UniProt P12318 34-217).
T6 construct: also called human FcgRIIaR; FcγRIIa type R; not shown: His-tag added to the C-terminus
T6 chain: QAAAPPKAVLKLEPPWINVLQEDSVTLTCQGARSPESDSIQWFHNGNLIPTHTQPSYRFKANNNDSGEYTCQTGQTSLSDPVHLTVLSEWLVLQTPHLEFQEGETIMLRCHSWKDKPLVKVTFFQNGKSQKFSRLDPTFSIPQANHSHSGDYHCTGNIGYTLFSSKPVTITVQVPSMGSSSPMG
Description: SPR (BIACORE), antibody captured, FcgR analyte.

The target of test [8] is T7, human FcγRIIb extracellular domain with C-terminal His-tag (human, UniProt P31994 43-217).
T7 construct: also called human FcgRIIb; not shown: His-tag added to the C-terminus
T7 sequence: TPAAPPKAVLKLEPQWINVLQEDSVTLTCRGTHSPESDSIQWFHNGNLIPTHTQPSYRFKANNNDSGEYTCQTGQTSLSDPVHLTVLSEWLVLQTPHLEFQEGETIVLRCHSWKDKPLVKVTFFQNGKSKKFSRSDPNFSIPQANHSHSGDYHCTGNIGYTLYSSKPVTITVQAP
Description: SPR (BIACORE), antibody captured, FcgR analyte.

B1: M103205H795-MY051/M103202L889-SK1 (antibody, human IgG1, kappa, name in EU numbering)
heavy: QVTLKESGPVLVKPTETLTLTCTVSGIDLSHDDISWVRQAPGKGLEWVGIISYAGSTYYASWAKGRLTISKDTSKNQVVLTMTNMDPVDTATYYCARGVPAYSHGGDLWGQGTLVTVSSASTKGPSVFPLAPSSKSTSGGTAALGCLVKDYFPEPVTVSWNSGALTSGVHTFPAVLQSSGLYSLSSVVTVPSSSLGTQTYICNVNHKPSNTKVDKKVEPKSCDKTHTCPPCPAPELLNGPSVFLFPPKPKDTLMISRTPEVTCVVVDVSEEDGEVKFNWYVDGVEVHNAKTKPREEQYNSTYRVVSVLTVLHQDWLNGKEYKCKVSNKALPAPIEKTISKAKGQPREPQVYTLPPSREEMTKNQVSLTCLVKGFYPSDIAVEWESNGQPENNYKTTPPVLDSDGSFFLYSKLTVDKSRWQQGNVFSCSVMHEALHNHYTQKSLSLSP
light: DIVMTQSPATLSLSPGERATLSCTSSQSVYHANWLSWFQQKPGQPPKLLIYWASTLAYGVPSRFSGSGSGTDFTLTISSLQPEDAATYYCAGGYGGGRYAFGQGTKVEIKRTVAAPSVFIFPPSDEQLKSGTASVVCLLNNFYPREAKVQWKVDNALQSGNSQESVTEQDSKDSTYSLSSTLTLSKADYEKHKVYACEVTHQGLSSPVTKSFNRGEC
notes: Fc variant of MS1032LO06-SG1; positions in EU numbering
The term Kd denotes a measure of binding affinity in units of concentration. On to B1, for which the “KD fold (SG1 = 1)” value in test [1] came out at 0.17 fold. Also, the Kd worked out at 2100 nM in test [2], 2200 nM in test [3] and 7400 nM in test [4].

B2: M103205H795-MY209/M103202L889-SK1 (antibody, human IgG1, kappa, name in EU numbering)
heavy: QVTLKESGPVLVKPTETLTLTCTVSGIDLSHDDISWVRQAPGKGLEWVGIISYAGSTYYASWAKGRLTISKDTSKNQVVLTMTNMDPVDTATYYCARGVPAYSHGGDLWGQGTLVTVSSASTKGPSVFPLAPSSKSTSGGTAALGCLVKDYFPEPVTVSWNSGALTSGVHTFPAVLQSSGLYSLSSVVTVPSSSLGTQTYICNVNHKPSNTKVDKKVEPKSCDKTHTCPPCPAPELLNGPSVFLFPPKPKDTLMISRTPEVTCVVVDVSDEDPEVKFNWYVDGVEVHNAKTKPREELYNSTYRVVSVLTVLHQDWLNGKEYKCKVSNTALPKPIEKTISKAKGQPREPQVYTLPPSREEMTKNQVSLTCLVKGFYPSDIAVEWESNGQPENNYKTTPPVLDSDGSFFLYSKLTVDKSRWQQGNVFSCSVMHEALHNHYTQKSLSLSP
light: DIVMTQSPATLSLSPGERATLSCTSSQSVYHANWLSWFQQKPGQPPKLLIYWASTLAYGVPSRFSGSGSGTDFTLTISSLQPEDAATYYCAGGYGGGRYAFGQGTKVEIKRTVAAPSVFIFPPSDEQLKSGTASVVCLLNNFYPREAKVQWKVDNALQSGNSQESVTEQDSKDSTYSLSSTLTLSKADYEKHKVYACEVTHQGLSSPVTKSFNRGEC
notes: substitutions in EU numbering, introduced into M103205H795-SG1
Regarding B2, the “KD fold (SG1 = 1)” value in test [5] amounted to 0.09 fold.

B3: M103205H795-MY208/M103202L889-SK1 (antibody, human IgG1, kappa, name in EU numbering)
heavy: QVTLKESGPVLVKPTETLTLTCTVSGIDLSHDDISWVRQAPGKGLEWVGIISYAGSTYYASWAKGRLTISKDTSKNQVVLTMTNMDPVDTATYYCARGVPAYSHGGDLWGQGTLVTVSSASTKGPSVFPLAPSSKSTSGGTAALGCLVKDYFPEPVTVSWNSGALTSGVHTFPAVLQSSGLYSLSSVVTVPSSSLGTQTYICNVNHKPSNTKVDKKVEPKSCDKTHTCPPCPAPELLNGPSVFLFPPKPKDTLMISRTPEVTCVVVDVSDEDPEVKFNWYVDGVEVHNAKTKPREELYNSTYRVVSVLTVLHQDWLNGKEYKCKVSNKALPAPIEKTISKAKGQPREPQVYTLPPSREEMTKNQVSLTCLVKGFYPSDIAVEWESNGQPENNYKTTPPVLDSDGSFFLYSKLTVDKSRWQQGNVFSCSVMHEALHNHYTQKSLSLSP
light: DIVMTQSPATLSLSPGERATLSCTSSQSVYHANWLSWFQQKPGQPPKLLIYWASTLAYGVPSRFSGSGSGTDFTLTISSLQPEDAATYYCAGGYGGGRYAFGQGTKVEIKRTVAAPSVFIFPPSDEQLKSGTASVVCLLNNFYPREAKVQWKVDNALQSGNSQESVTEQDSKDSTYSLSSTLTLSKADYEKHKVYACEVTHQGLSSPVTKSFNRGEC
notes: as for B1
With B3, the Kd in test [6] was determined as 6700 nM; in test [2], 28 nM; in test [3], 830 nM; in test [7], 2100 nM; in test [8], 1100 nM.

B4: M103205H795-MY115/M103202L889-SK1 (antibody, human IgG1, kappa, name in EU numbering)
heavy: QVTLKESGPVLVKPTETLTLTCTVSGIDLSHDDISWVRQAPGKGLEWVGIISYAGSTYYASWAKGRLTISKDTSKNQVVLTMTNMDPVDTATYYCARGVPAYSHGGDLWGQGTLVTVSSASTKGPSVFPLAPSSKSTSGGTAALGCLVKDYFPEPVTVSWNSGALTSGVHTFPAVLQSSGLYSLSSVVTVPSSSLGTQTYICNVNHKPSNTKVDKKVEPKSCDKTHTCPPCPAPELLNGPSVFLFPPKPKDTLMISRTPEVTCVVVDVAEEDPEVKFNWYVDGVEVHNAKTKPREEQYNSTYRVVSVLTVLHQDWLNGKEYKCKVSNKALPAPIEKTISKAKGQPREPQVYTLPPSREEMTKNQVSLTCLVKGFYPSDIAVEWESNGQPENNYKTTPMVLDSDGSFFLYSKLTVDKSRWQQGNVFSCSVMHEALHNHYTQKSLSLSP
light: DIVMTQSPATLSLSPGERATLSCTSSQSVYHANWLSWFQQKPGQPPKLLIYWASTLAYGVPSRFSGSGSGTDFTLTISSLQPEDAATYYCAGGYGGGRYAFGQGTKVEIKRTVAAPSVFIFPPSDEQLKSGTASVVCLLNNFYPREAKVQWKVDNALQSGNSQESVTEQDSKDSTYSLSSTLTLSKADYEKHKVYACEVTHQGLSSPVTKSFNRGEC
notes: as for B1
In the case of B4, the “KD fold (SG1 = 1)” value in test [1] was 0.42 fold. Further, the results for the Kd in test [6], in test [2] and in test [8] were 7600 nM, 850 nM and 320 nM, respectively.

B5: M103205H795-MY207/M103202L889-SK1 (antibody, human IgG1, kappa, name in EU numbering)
heavy: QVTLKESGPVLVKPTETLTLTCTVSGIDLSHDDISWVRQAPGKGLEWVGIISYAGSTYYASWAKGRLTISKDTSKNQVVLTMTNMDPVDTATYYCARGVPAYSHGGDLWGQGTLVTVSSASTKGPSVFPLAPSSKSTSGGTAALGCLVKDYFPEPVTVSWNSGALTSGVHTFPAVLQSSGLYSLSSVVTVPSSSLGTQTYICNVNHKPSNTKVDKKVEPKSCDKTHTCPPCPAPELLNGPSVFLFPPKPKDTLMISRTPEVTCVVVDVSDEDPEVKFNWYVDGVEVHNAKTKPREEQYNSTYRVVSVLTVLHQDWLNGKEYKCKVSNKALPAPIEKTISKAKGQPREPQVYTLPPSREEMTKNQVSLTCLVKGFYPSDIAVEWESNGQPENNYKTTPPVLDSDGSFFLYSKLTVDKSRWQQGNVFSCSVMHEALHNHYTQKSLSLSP
light: DIVMTQSPATLSLSPGERATLSCTSSQSVYHANWLSWFQQKPGQPPKLLIYWASTLAYGVPSRFSGSGSGTDFTLTISSLQPEDAATYYCAGGYGGGRYAFGQGTKVEIKRTVAAPSVFIFPPSDEQLKSGTASVVCLLNNFYPREAKVQWKVDNALQSGNSQESVTEQDSKDSTYSLSSTLTLSKADYEKHKVYACEVTHQGLSSPVTKSFNRGEC
notes: as for B1
Take B5: the Kd in test [6] came out at 6900 nM; in test [2] it was 4100 nM; in test [3], 1300 nM; in test [8], 1500 nM.

B6: M103205H795-MY204/M103202L889-SK1 (antibody, human IgG1, kappa, name in EU numbering)
heavy: QVTLKESGPVLVKPTETLTLTCTVSGIDLSHDDISWVRQAPGKGLEWVGIISYAGSTYYASWAKGRLTISKDTSKNQVVLTMTNMDPVDTATYYCARGVPAYSHGGDLWGQGTLVTVSSASTKGPSVFPLAPSSKSTSGGTAALGCLVKDYFPEPVTVSWNSGALTSGVHTFPAVLQSSGLYSLSSVVTVPSSSLGTQTYICNVNHKPSNTKVDKKVEPKSCDKTHTCPPCPAPELLNGPVVFLFPPKPKDTLMISRTPEVTCVVVDVSEEDPEVKFNWYVDGVEVHNAKTKPREELYNSTYRVVSVLTVLHQDWLNGKEYKCKVSNKALPKPIEKTISKAKGQPREPQVYTLPPSREEMTKNQVSLTCLVKGFYPSDIAVEWESNGQPENNYKTTPPVLDSDGSFFLYSKLTVDKSRWQQGNVFSCSVMHEALHNHYTQKSLSLSP
light: DIVMTQSPATLSLSPGERATLSCTSSQSVYHANWLSWFQQKPGQPPKLLIYWASTLAYGVPSRFSGSGSGTDFTLTISSLQPEDAATYYCAGGYGGGRYAFGQGTKVEIKRTVAAPSVFIFPPSDEQLKSGTASVVCLLNNFYPREAKVQWKVDNALQSGNSQESVTEQDSKDSTYSLSSTLTLSKADYEKHKVYACEVTHQGLSSPVTKSFNRGEC
notes: as for B1
With B6, the Kd in test [2] came to 3500 nM; in test [8] it was 1500 nM; in test [4], 11000 nM.
